Test results as given in article PMC7854685, “Histone Parylation factor 1 contributes to the inhibition of PARP1 by cancer drugs”.

Experiments:
[1] = target: PARP1;HPF1 (Homo sapiens?;Homo sapiens?, UniProt P09874;Q9NWY4 1-1014;1-346, |); assay: fluorescence polarization (release of labelled DNA on autoPARylation); 2 uM HPF1, PARPi; DNA released by 2 mM NAD+; 50 mM Tris-HCl pH 8.0, 50 mM NaCl, 1 mM MgCl2, 0.1 mM EDTA, 0.01% IGEPAL; temperature not stated; conditions: protein: recombinant;recombinant; (nickel column); copies: 1;1; label: fluorescein (5') in the FP DNA-release assay; blunt
Chain of PARP1;HPF1 (P09874 whole entry, chain 1 of 2): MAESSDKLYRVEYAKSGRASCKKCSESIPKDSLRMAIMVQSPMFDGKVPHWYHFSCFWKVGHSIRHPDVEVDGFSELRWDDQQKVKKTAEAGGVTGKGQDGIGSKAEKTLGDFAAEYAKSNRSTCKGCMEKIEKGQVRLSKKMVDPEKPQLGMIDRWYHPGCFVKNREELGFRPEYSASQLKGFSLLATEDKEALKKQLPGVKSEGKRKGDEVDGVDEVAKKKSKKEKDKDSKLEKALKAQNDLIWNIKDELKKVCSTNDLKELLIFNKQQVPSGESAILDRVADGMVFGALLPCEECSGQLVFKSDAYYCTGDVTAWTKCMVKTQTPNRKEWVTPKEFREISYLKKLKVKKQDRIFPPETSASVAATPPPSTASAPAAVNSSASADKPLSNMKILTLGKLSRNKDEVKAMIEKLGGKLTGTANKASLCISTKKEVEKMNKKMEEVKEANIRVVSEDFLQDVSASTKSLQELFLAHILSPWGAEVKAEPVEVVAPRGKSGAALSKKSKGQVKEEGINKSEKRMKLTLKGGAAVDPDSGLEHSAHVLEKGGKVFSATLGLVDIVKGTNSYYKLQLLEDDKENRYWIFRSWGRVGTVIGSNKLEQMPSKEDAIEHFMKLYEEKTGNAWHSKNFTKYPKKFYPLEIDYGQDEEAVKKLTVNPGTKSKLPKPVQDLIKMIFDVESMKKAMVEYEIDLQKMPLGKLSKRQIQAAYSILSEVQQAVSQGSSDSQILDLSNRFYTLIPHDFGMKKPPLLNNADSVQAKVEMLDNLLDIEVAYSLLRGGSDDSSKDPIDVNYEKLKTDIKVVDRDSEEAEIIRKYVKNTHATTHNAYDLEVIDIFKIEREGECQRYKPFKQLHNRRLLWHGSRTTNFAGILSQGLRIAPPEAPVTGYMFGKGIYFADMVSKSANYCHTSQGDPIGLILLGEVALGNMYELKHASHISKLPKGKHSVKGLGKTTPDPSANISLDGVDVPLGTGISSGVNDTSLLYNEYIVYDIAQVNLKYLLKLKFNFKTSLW
Chain of PARP1;HPF1 (Q9NWY4 whole entry, chain 2 of 2): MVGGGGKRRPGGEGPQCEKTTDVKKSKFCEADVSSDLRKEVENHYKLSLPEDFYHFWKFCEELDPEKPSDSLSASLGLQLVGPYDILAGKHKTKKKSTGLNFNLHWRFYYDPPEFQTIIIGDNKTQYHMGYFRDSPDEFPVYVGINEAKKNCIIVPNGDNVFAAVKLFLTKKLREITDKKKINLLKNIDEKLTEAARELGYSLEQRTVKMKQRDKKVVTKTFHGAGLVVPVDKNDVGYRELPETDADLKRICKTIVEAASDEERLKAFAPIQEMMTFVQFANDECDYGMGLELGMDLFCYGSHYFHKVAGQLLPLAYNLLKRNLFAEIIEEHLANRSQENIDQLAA

[2] = target: PARP2;HPF1 (Homo sapiens?;Homo sapiens?, UniProt Q9UGN5;Q9NWY4 1-583;1-346, |); assay: as above; conditions: protein: recombinant;recombinant; (nickel column); copies: 1;1; label: fluorescein (5') in the FP DNA-release assay; blunt
Chain of PARP2;HPF1 (Q9UGN5 whole entry, chain 1 of 2): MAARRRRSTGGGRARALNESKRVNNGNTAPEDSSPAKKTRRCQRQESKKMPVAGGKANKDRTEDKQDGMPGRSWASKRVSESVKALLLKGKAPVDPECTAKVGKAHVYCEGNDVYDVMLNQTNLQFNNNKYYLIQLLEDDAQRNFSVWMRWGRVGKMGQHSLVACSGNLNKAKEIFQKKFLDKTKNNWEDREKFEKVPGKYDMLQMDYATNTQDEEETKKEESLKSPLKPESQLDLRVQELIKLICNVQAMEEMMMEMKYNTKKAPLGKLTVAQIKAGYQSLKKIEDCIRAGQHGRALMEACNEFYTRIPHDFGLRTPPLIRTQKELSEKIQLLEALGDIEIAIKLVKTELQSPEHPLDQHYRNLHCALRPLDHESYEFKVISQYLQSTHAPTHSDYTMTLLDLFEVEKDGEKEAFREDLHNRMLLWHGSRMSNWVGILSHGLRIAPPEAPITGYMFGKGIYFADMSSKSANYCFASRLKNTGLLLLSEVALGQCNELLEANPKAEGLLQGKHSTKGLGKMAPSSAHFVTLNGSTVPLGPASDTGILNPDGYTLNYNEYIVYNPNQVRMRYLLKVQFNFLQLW
Chain of PARP2;HPF1 (Q9NWY4 whole entry, chain 2 of 2): as the sequence (Q9NWY4 whole entry, chain 2 of 2) above

[3] = target: PARP2 (UniProt Q9UGN5 1-583); assay: fluorescence polarization (release of labelled DNA on autoPARylation); PARPi present or absent; DNA released by 2 mM NAD+, retained without NAD+; 50 mM Tris-HCl pH 8.0, 50 mM NaCl, 1 mM MgCl2, 0.1 mM EDTA, 0.01% IGEPAL; temperature not stated; conditions: protein: recombinant; label: fluorescein (5') in the FP DNA-release assay; blunt
Chain of PARP2 (Q9UGN5 whole entry): as the sequence (Q9UGN5 whole entry, chain 1 of 2) above

[4] = target: PARP1 (UniProt P09874 1-1014); assay: as above; conditions: protein: recombinant; label: fluorescein (5') in the FP DNA-release assay; blunt
Chain of PARP1 (P09874 whole entry): as the sequence (P09874 whole entry, chain 1 of 2) above

Measured: binding result

B1: p18mer (dsDNA)
DNA 1: GGGTTGCGGCCGCTTGGG
DNA 2: CCCAAGCGGCCGCAACCC
modifications: 5'-phosphate
binds: all assays above
